Reference: patent publication US20190359687A1 (Bayer, published 2019)

What was measured:
[1] = target: T1, Cynomolgus monkey glycophorin A on Cynomolgus monkey red blood cells (Cynomolgus monkey); test: partition to Cyno RBC, human HemA plasma, 1 min;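 also: FVIII fusion spiked at 1 IU/mL into RBC suspension at whole-blood density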
T1 construct: whole, on cells; also called Cyno GPA; Cyno RBC

[2] = target: T1, Cynomolgus monkey glycophorin A on …; test: partition to Cyno RBC, human HemA plasma, 5 min;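 also: FVIII fusion spiked at 1 IU/mL into RBC suspension at whole-blood density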
[3] = target: T2, human glycophorin A on human red blood cells (human, UniProt P02724 20-150); test: partition to human RBC, human HemA plasma, 1 min
T2 construct: whole, on cells; also called human GPA; huGPA
T2 sequence (looked up): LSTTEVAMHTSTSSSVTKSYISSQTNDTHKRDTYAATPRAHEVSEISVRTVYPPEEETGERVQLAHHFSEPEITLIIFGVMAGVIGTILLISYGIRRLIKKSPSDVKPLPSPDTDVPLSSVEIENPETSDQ
Protocol: (§1) The supernatant containing plasma, platelets and white blood cells was discarded and the red blood cell pellet was resuspended in 10 pellet volumes of PBS (50 mM Phosphate buffer, pH7.4, 150 mM NaCl). The red blood cells were then pelleted by slow speed centrifugation and the red blood cells re-suspended in 10 volumes of PBS. This washing step was repeated 4 more times and the red blood cells finally resuspended in a volume of plasma from Hemophilia patients with less than 1% of normal levels of FVIII (GeorgeKing Bio-Medical, Overland Park, Kans.) to generate a total volume equal to the initial blood volume such that the RBC density was equal to that of normal whole blood. BDD and RBC targeted FVIII molecules were then spiked into RBC suspension in HemA plasma at 1 IU/mL, and incubated at room temperature for 2-3 hours with gentle rotation. […] An additional control was performed in which BDD or RBC targeted FVIII molecules were added at 11U/ml into the same human hemophilia A plasma and incubated for 5 minutes and 180 mins. These samples were used to determine the input FVIII activity in the presence of plasma which was used to calculate the percentage of the molecule that was bound to RBC. All plasma samples were then assayed together for FVIII activity using the Coatest SP assay (DiaPharma, Columbus, Ohio). The assay was performed following the manufacturer's instructions in a 96-well plate format. […] The plate was incubated at 37° C. for 10 minutes with shaking between each reagent addition. […] The amount of FVIII activity in the plasma reflects the amount of unbound FVIII. The FVIII activity of the same molecule spiked in to Hemophilia A plasma alone (no RBC) and incubated for 5 minutes was normalized to 100%.

[4] = target: T2, human glycophorin A on human red blood …; test: partition to human RBC, human HemA plasma, 5 min
[5] = target: T1, Cynomolgus monkey glycophorin A on …; test: partition to Cyno RBC, human HemA plasma, 15 min;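 also: FVIII fusion spiked at 1 IU/mL into RBC suspension at whole-blood density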
[6] = target: T1, Cynomolgus monkey glycophorin A on …; test: partition to Cyno RBC, human HemA plasma, 30 min;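 also: FVIII fusion spiked at 1 IU/mL into RBC suspension at whole-blood density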
[7] = target: T1, Cynomolgus monkey glycophorin A on …; test: partition to Cyno RBC, human HemA plasma, 60 min;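 also: FVIII fusion spiked at 1 IU/mL into RBC suspension at whole-blood density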
Protocol: To evaluate partition to cynomolgus monkey or human red blood cells, whole blood was draw from Cynomolgus monkey or normal human volunteers in to anticoagulant with 4% sodium citrate (Sigma, St Louis, Mo.). The red blood cells were purified by layering the whole blood on to ficoll followed by low speed centrifugation. The supernatant containing plasma, platelets and white blood cells was discarded and the red blood cell pellet was resuspended in 10 pellet volumes of PBS (50 mM Phosphate buffer, pH7.4, 150 mM NaCl). The red blood cells were then pelleted by slow speed centrifugation and the red blood cells re-suspended in 10 volumes of PBS. This washing step was repeated 4 more times and the red blood cells finally resuspended in a volume of plasma from Hemophilia patients with less than 1% of normal levels of FVIII (GeorgeKing Bio-Medical, Overland Park, Kans.) to generate a total volume equal to the initial blood volume such that the RBC density was equal to that of normal whole blood. BDD and RBC targeted FVIII molecules were then spiked into RBC suspension in HemA plasma at 1 IU/mL, and incubated at room temperature for 2-3 hours with gentle rotation. […] An additional control was performed in which BDD or RBC targeted FVIII molecules were added at 11U/ml into the same human hemophilia A plasma and incubated for 5 minutes and 180 mins. These samples were used to determine the input FVIII activity in the presence of plasma which was used to calculate the percentage of the molecule that was bound to RBC. All plasma samples were then assayed together for FVIII activity using the Coatest SP assay (DiaPharma, Columbus, Ohio). The assay was performed following the manufacturer's instructions in a 96-well plate format. […] The plate was incubated at 37° C. for 10 minutes with shaking between each reagent addition.

[8] = target: T2, human glycophorin A on human red blood …; test: partition to human RBC, human HemA plasma, 15 min
[9] = target: T2, human glycophorin A on human red blood …; test: partition to human RBC, human HemA plasma, 30 min
Protocol: as §1

[10] = target: T2, human glycophorin A on human red blood …; test: partition to human RBC, human HemA plasma, 60 min
[11] = target: T1, Cynomolgus monkey glycophorin A on …; test: partition to Cyno RBC, human HemA plasma, 120 min;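 also: FVIII fusion spiked at 1 IU/mL into RBC suspension at whole-blood density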
[12] = target: T2, human glycophorin A on human red blood …; test: partition to human RBC, human HemA plasma, 120 min
[13] = target: T2, human glycophorin A on human red blood …; test: partition to human RBC, human HemA plasma, 120 min; remark: listed apart in the source
Protocol: as §1

[14] = target: T2, human glycophorin A on human red blood …; test: partition to human RBC, vWF deficient plasma, 1 min
[15] = target: T2, human glycophorin A on human red blood …; test: partition to human RBC, vWF deficient plasma, 5 min
[16] = target: T2, human glycophorin A on human red blood …; test: partition to human RBC, vWF deficient plasma, 15 min
[17] = target: T2, human glycophorin A on human red blood …; test: partition to human RBC, vWF deficient plasma, 30 min
[18] = target: T2, human glycophorin A on human red blood …; test: partition to human RBC, vWF deficient plasma, 60 min
[19] = target: T2, human glycophorin A on human red blood …; test: partition to human RBC, vWF deficient plasma, 120 min

B1: TPP-9901 FVIII-scFv fusion protein (other)
chain: ATRRYYLGAVELSWDYMQSDLGELPVDARFPPRVPKSFPFNTSVVYKKTLFVEFTDHLFNIAKPRPPWMGLLGPTIQAEVYDTVVITLKNMASHPVSLHAVGVSYWKASEGAEYDDQTSQREKEDDKVFPGGSHTYVWQVLKENGPMASDPLCLTYSYLSHVDLVKDLNSGLIGALLVCREGSLAKEKTQTLHKFILLFAVFDEGKSWHSETKNSLMQDRDAASARAWPKMHTVNGYVNRSLPGLIGCHRKSVYWHVIGMGTTPEVHSIFLEGHTFLVRNHRQASLEISPITFLTAQTLLMDLGQFLLFCHISSHQHDGMEAYVKVDSCPEEPQLRMKNNEEAEDYDDDLTDSEMDVVRFDDDNSPSFIQIRSVAKKHPKTWVHYIAAEEEDWDYAPLVLAPDDRSYKSQYLNNGPQRIGRKYKKVRFMAYTDETFKTREAIQHESGILGPLLYGEVGDTLLIIFKNQASRPYNIYPHGITDVRPLYSRRLPKGVKHLKDFPILPGEIFKYKWTVTVEDGPTKSDPRCLTRYYSSFVNMERDLASGLIGPLLICYKESVDQRGNQIMSDKRNVILFSVFDENRSWYLTENIQRFLPNPAGVQLEDPEFQASNIMHSINGYVFDSLQLSVCLHEVAYWYILSIGAQTDFLSVFFSGYTFKHKMVYEDTLTLFPFSGETVFMSMENPGLWILGCHNSDFRNRGMTALLKVSSCDKNTGDYYEDSYEDISAYLLSKNNAIEPRSFSQNGGGGSTGGTGGSSGGGTGSGGGGTGGSGGTDIQLTQSPSFLSASVGDRVTITCRASSSVRYIYWFQQKPGKAPKLLIYATSFRQSGVPSRFSGSGSGTEYTLTISSLQPEDFATYYCHQRNSFPYTFGQGTKLEIKGGGGSGGGGSGGGGSGGGGSEVQLVQSGAEVKKPGASVKVSCKASGYTFTTYAIHWVRQAPGQGLEWMGYINPSSGYTRYNPKFKGRVTMTRDKSTSTAYMELRSLRSDDTAVYYCWTGTRDYWGQGTTVTVSSGGGGDENQSPRSFQKKTRHYFIAAVERLWDYGMSSSPHVLRNRAQSGSVPQFKKVVFQEFTDGSFTQPLYRGELNEHLGLLGPYIRAEVEDNIMVTFRNQASRPYSFYSSLISYEEDQRQGAEPRKNFVKPNETKTYFWKVQHHMAPTKDEFDCKAWAYFSDVDLEKDVHSGLIGPLLVCHTNTLNPAHGRQVTVQEFALFFTIFDETKSWYFTENMERNCRAPCNIQMEDPTFKENYRFHAINGYIMDTLPGLVMAQDQRIRWYLLSMGSNENIHSIHFSGHVFTVRKKEEYKMALYNLYPGVFETVEMLPSKAGIWRVECLIGEHLHAGMSTLFLVYSNKCQTPLGMASGHIRDFQITASGQYGQWAPKLARLHYSGSINAWSTKEPFSWIKVDLLAPMIIHGIKTQGARQKFSSLYISQFIIMYSLDGKKWQTYRGNSTGTLMVFFGNVDSSGIKHNIFNPPIIARYIRLHPTHYSIRSTLRMELMGCDLNSCSMPLGMESKAISDAQITASSYFTNMFATWSPSKARLHLQGRSNAWRPQVNNPKEWLQVDFQKTMKVTGVTTQGVKSLLTSMYVKEFLISSSQDGHQWTLFFQNGKVKVFQGNQDSFTPVVNSLDPPLLTRYLRIHPQSWVHQIALRMEVLGCEAQDLYGGGSGGGGSGLVPRGSGGGSGGGGSGDIQLTQSPSFLSASVGDRVTITCRASSSVRYIYWFQQKPGKAPKLLIYATSFRQSGVPSRFSGSGSGTEYTLTISSLQPEDFATYYCHQRNSFPYTFGQGTKLEIKGGGGSGGGGSGGGGSGGGGSEVQLVQSGAEVKKPGASVKVSCKASGYTFTTYAIHWVRQAPGQGLEWMGYINPSSGYTRYNPKFKGRVTMTRDKSTSTAYMELRSLRSDDTAVYYCWTGTRDYWGQGTTVTVSS
notes: also called PPB 7855
[1]
  % bound to Cyno RBC: 26.4%
[2]
  % bound to Cyno RBC: 46%
[3]
  percentage bound to human RBC: 31.4%
[4]
  percentage bound to human RBC: 53.8%
[5]
  % bound to Cyno RBC: 54%
[6]
  % bound to Cyno RBC: 58%
[7]
  % bound to Cyno RBC: 68%
[8]
  percentage bound to human RBC: 71.5%
[9]
  percentage bound to human RBC: 78.9%
[10]
  percentage bound to human RBC: 84.1%
[11]
  % bound to Cyno RBC: 71%
[12]
  percentage bound to human RBC: 86.7%
[13]
  percentage bound to human RBC: 86.7%
[14]
  percentage bound to human RBC: 26%
[15]
  percentage bound to human RBC: 44.9%
[16]
  percentage bound to human RBC: 53.8%
[17]
  percentage bound to human RBC: 57.3%
[18]
  percentage bound to human RBC: 64.3%
[19]
  percentage bound to human RBC: 72.7%
